{"source": "paper PMC12378428", "target": "hSOX2-HMG (Homo sapiens, UniProt P48431)", "experiment": "EMSA", "data": [{"binder": "P1/P2 SOX2 binding DNA (dsDNA) DNA 1: GGAAACAATGGA DNA 2: TCCATTGTTTCC", "values": [{"measurement": "Kd", "value": "~610", "unit": "nM"}]}]}
